Drawing on doi:10.1101/2020.10.19.344200, this text covers percent of Pol II particles with density for U1 snRNP for 1 substance.

This experiment has as its target S. scrofa RNA polymerase II (transcribing, phosphorylated, on a DNA-RNA scaffold) (S. scrofa). Nature of the experiment: cryo-EM structure.

“human U1 small nuclear ribonucleoprotein particle (from UniProt P08621;P09012;P09234) (complex)” displayed a percent of Pol II particles with density for U1 snRNP of 17.5%.
